In the nanobody polyreactivity screen of Harvey et al. (2022):

Assay: yeast display, Sf9 membrane polyspecificity reagent, FACS + sequencing; frameworks hold sequencing errors
Summary of the method: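 Galactose induction of a Saccharomyces cerevisiae BJ5465 synthetic nanobody display library ran 36–48 hours. The cells were then stained for 1 hour at 4 °C with 10% biotinylated, detergent-solubilized Sf9 membrane reagent, pulled down on streptavidin microbeads and FACS-sorted into low and high (top ~1%) gates on expression and reagent-binding fluorescence. Labels for polyreactivity follow the gate of origin.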

| Sequence | polyreactivity (PSR sort gate) |
| --- | --- |
| KVQLVDSGGGLVQAGGSLRLSCAASGSTSKCYAMGWYRPEPGKERELVAAITKTGGRTYYADSVKGRFTISRDNAKNTVYLQMNSLKPEDTADYYCAVEYLRGFIVIYDYWGQGTQVTVTS | high polyreactivity |
| KVQLVESAVGLVQAGGSLRLSCAASGPTFWRNAMGWYRQAPGKERELVAAISRGGSTNYADSVKGRFTISRDNAKNTVYLLMNSLKPEDTAVYYCAARYYYRYNYWGQGTQVTVSS | high polyreactivity |
| KVQLVESGGCLVQAGGSLSLSCAASGSIFAVYAMGWYRQAPGKERELVAAITLSGGSTYAYSVKGRFTISRDNAKNTFYLQMKSLKPEDTAVYYCNAVSANYDYVDYEYWGQGTQVNVSS | low polyreactivity |
| KVQLVESGGGLVQAGGSIRLSFAASGLIFLQYCMGWYRQAPGKERELVAAITTRGGRTYYADSVKGRFTISRDNPKNTVYLQMNSLKPEDTAVYYCAADSEQDNLRYYRWVWYYYWGQGPQVTVSS | low polyreactivity |
| KVQLVESGGGLVQAGGSLRLSCAASGGTFSYNAMGWYRQAPGKERELVAAISWSGTRTYYADSVKGRFTISRDNAKNTVYLQMNSLKPEDTAVYYCNKPPPNRGRYDYWGQCTQVTVSS | low polyreactivity |
| KVQLVESGGGLVQAGGSLRLSCAASGLNFGRYAMGWYRQAPGKERELVAAISSSGVRTYYADSVKGRFTISRHNAKNTVYLQMNSLKPADTAVYYCAAAYWSSREDTVIKRYYWGQGTQVTVSS | high polyreactivity |
| KVQLVESGGGLVQAGGSLRLSCAASGNTFYVYTMGWYRQAPGKERDLVAAISSTGDRTYYADSVKGRFTISRDNAKNTVYLQMNSLKPEDTSVYYCADVRYITKEFYWGLGTQVTVSS | high polyreactivity |
| KVQLVESGGGLVQAGGSLRLSCAASGRIFKYYAMGWYRQAPGKERELVAAISARGGSTYYADSVKGRFTISRDNAKNTVYLQMNSLKPEDTAVYYCAAPYLTTQYERMYYWGQGTQVTVSS | high polyreactivity |
| KVQLVESGGGLVQAGGSLRLSCAASGSIISPNAMGWYRQAPGKERELVAGITQSGGSTYYADSVKGRFTISRDNAKNTVYLQMNSLKPEDTAVYYCSVDFILGWYSYYYWGQGTQVTVSS | high polyreactivity |
| KVQLVESGGGLVQAGGSLRLSCAASGSTFSTNAMGRYRQAPGKERELVAAISRTGGSTYYADSVKGRFTISRDNAKNNVYLPMNILKPEDTAVYYSARYSYRGTNVRFDYWGQGTQVTLSS | high polyreactivity |
| KVQLVESGGGLVQAGGSLRLSCAASGSTFSYYAMGWYRQGPGKERELVAAITRSGYSTYYADSVKGRFTISLDNAKNTVYLQMNSLKPEDTAVYYCNTVSRYKYPKPTYYQSSFYYWGQGTQVTVSS | high polyreactivity |
| KVQLVESGGGLVQAGGSLRLSCAATGRIFRPKAMGCYIQAPGKEREMVAAIRSTVGSTFYEYSVKGRFSISRDNAKNTVYLEMNRLKREDTAVYYCAGGTSRQFYYWGQGTQVTVSS | low polyreactivity |
| KVQLVESGGGLVQAGGSLRLSCPASGSIFTSYAMGWYRQAPGKERELVAAISSGGSTNYADSVKGRFTISRDNAKNTVYLQMNSLKPEDTAVYYCAKGSRKSGYKYYHGRVWFGYWGQGTQVTVSS | high polyreactivity |
| KVQLVESGGGLVQAGGSLRLSRAASGFTFGSYAMGWYRQAPGKERELVAAITRRGGSTRYADSVKGRFTISRDNAKNTVYLQMNSLKPEDTAVYYCAAKHGRNYAANALYGYWGQGTQVTVSS | high polyreactivity |
| KVQLVESGGGLVQAGGSLRLTCAASGSTFYIYAMGWYRPAPGKERELVATISSTGSTHYADSVKGRFTISRDNAKNTVFLQMNSLKPEDTAGYYCNPVYFGRYSRRDHWGQGTQVTVSS | high polyreactivity |
| KVQLVESGSGFVQAGGSLGLSCAASGSIFRGYAMGWYRQAPGKERELVAAISWSGGTTYYADSVKGRLTISRDNEKNTFYLQMNSLKPEDTAVYYCAADTTVTITSKYNYWVQGTQVTVSS | low polyreactivity |
| LVQLQESGGGLVQAGGSLRLSCAASGTISPGGYMGWYRQAPGKERELVASINVGGSTNYADSVKGRFTISRDNAKNTVYLQMKSLKPEDNAVYYCAVWGRNRLQLSYWGQGTQVTVSS | low polyreactivity |
